Bridges are numbered along the chain shown (N, C = ends). Primed or numbered codes have the meaning given here. [ ]: non-standard residue; d: D form. A8″‑42 = template L-Pro residue whose 4-amino group is acylated with CH3-(OCH2CH2)2-OCH2-CO (2-[2-(2-methoxyethoxy)ethoxy]acetyl), per the notes; 2Nal = N[C@@H](Cc1ccc2ccccc2c1)C(=O)O; 4Pal = N[C@@H](Cc1ccncc1)C(=O)O; Cit = NC(=O)NCCC[C@H](N)C(=O)O; Orn = NCCC[C@H](N)C(=O)O; Dab = NCC[C@H](N)C(=O)O
target: human CXCR4 (human, UniProt P61073 1-352); assay: cell-based or functional assay
Sequence (P61073 whole entry): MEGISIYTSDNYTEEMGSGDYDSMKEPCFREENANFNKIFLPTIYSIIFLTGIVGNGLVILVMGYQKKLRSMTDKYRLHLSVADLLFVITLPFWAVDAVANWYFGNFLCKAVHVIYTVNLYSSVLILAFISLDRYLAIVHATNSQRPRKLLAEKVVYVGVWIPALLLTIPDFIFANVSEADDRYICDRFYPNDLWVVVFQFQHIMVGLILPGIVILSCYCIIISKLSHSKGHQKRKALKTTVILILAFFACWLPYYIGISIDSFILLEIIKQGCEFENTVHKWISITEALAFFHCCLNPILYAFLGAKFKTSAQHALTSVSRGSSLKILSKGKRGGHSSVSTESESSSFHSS

| IC50 (nM) Ca2+ assay (method 2) [nM] | IC50 (nM) Ca2+ assay (method 1) [nM] | Binder |
| --- | --- | --- |
| 3.1 | – | cyclo(YK[Cit]CRG[dP]RRWCY[Cit]K[dP]P) (disulfide 4-11; SMILES N=C(N)NCCC[C@@H]1NC(=O)[C@@H]2CSSC[C@H](NC(=O)[C@H](Cc3c[nH]c4ccccc34)NC(=O)[C@H](CCCNC(=N)N)NC(=O)[C@H](CCCNC(=N)N)NC(=O)[C@H]3CCCN3C(=O)CNC1=O)C(=O)N[C@@H](Cc1ccc(O)cc1)C(=O)N[C@@H](CCCNC(N)=O)C(=O)N[C@@H](CCCCN)C(=O)N1CCC[C@@H]1C(=O)N1CCC[C@H]1C(=O)N[C@@H](Cc1ccc(O)cc1)C(=O)N[C@@H](CCCCN)C(=O)N[C@@H](CCCNC(N)=O)C(=O)N2) [Example 106] |
| 3.8 | – | cyclo(FR[Cit]CRG[dP]RRWCY[Cit]K[dP]P) (disulfide 4-11; SMILES N=C(N)NCCC[C@@H]1NC(=O)[C@@H]2CSSC[C@H](NC(=O)[C@H](Cc3c[nH]c4ccccc34)NC(=O)[C@H](CCCNC(=N)N)NC(=O)[C@H](CCCNC(=N)N)NC(=O)[C@H]3CCCN3C(=O)CNC1=O)C(=O)N[C@@H](Cc1ccc(O)cc1)C(=O)N[C@@H](CCCNC(N)=O)C(=O)N[C@@H](CCCCN)C(=O)N1CCC[C@@H]1C(=O)N1CCC[C@H]1C(=O)N[C@@H](Cc1ccccc1)C(=O)N[C@@H](CCCNC(=N)N)C(=O)N[C@@H](CCCNC(N)=O)C(=O)N2) [Example 107] |
| 4.6 | – | cyclo(YR[Cit]CRG[dP]RRWCYQK[dP]P) (disulfide 4-11; SMILES N=C(N)NCCC[C@@H]1NC(=O)[C@@H]2CSSC[C@H](NC(=O)[C@H](Cc3c[nH]c4ccccc34)NC(=O)[C@H](CCCNC(=N)N)NC(=O)[C@H](CCCNC(=N)N)NC(=O)[C@H]3CCCN3C(=O)CNC1=O)C(=O)N[C@@H](Cc1ccc(O)cc1)C(=O)N[C@@H](CCC(N)=O)C(=O)N[C@@H](CCCCN)C(=O)N1CCC[C@@H]1C(=O)N1CCC[C@H]1C(=O)N[C@@H](Cc1ccc(O)cc1)C(=O)N[C@@H](CCCNC(=N)N)C(=O)N[C@@H](CCCNC(N)=O)C(=O)N2) [Example 108] |
| 1.3 | – | cyclo(GR[Cit]CRG[dP]RR[2Nal]CY[Cit]K[dP]P) (disulfide 4-11; SMILES N=C(N)NCCC[C@@H]1NC(=O)CNC(=O)[C@@H]2CCCN2C(=O)[C@H]2CCCN2C(=O)[C@H](CCCCN)NC(=O)[C@H](CCCNC(N)=O)NC(=O)[C@H](Cc2ccc(O)cc2)NC(=O)[C@@H]2CSSC[C@H](NC(=O)[C@H](CCCNC(N)=O)NC1=O)C(=O)N[C@@H](CCCNC(=N)N)C(=O)NCC(=O)N1CCC[C@@H]1C(=O)N[C@@H](CCCNC(=N)N)C(=O)N[C@@H](CCCNC(=N)N)C(=O)N[C@@H](Cc1ccc3ccccc3c1)C(=O)N2) [Example 114] |
| 14.5 | – | cyclo(YR[Cit]CRG[dP]RRWCY[Cit]K[dP][A8″‑42]) (disulfide 4-11) [Example 116] |
| 0.62 | – | cyclo(YR[Cit]CRG[dP]RRYC[Cit]YK[dP]P) (disulfide 4-11; SMILES N=C(N)NCCC[C@@H]1NC(=O)[C@@H]2CSSC[C@H](NC(=O)[C@H](Cc3ccc(O)cc3)NC(=O)[C@H](CCCNC(=N)N)NC(=O)[C@H](CCCNC(=N)N)NC(=O)[C@H]3CCCN3C(=O)CNC1=O)C(=O)N[C@@H](CCCNC(N)=O)C(=O)N[C@@H](Cc1ccc(O)cc1)C(=O)N[C@@H](CCCCN)C(=O)N1CCC[C@@H]1C(=O)N1CCC[C@H]1C(=O)N[C@@H](Cc1ccc(O)cc1)C(=O)N[C@@H](CCCNC(=N)N)C(=O)N[C@@H](CCCNC(N)=O)C(=O)N2) [Example 113] |
| 3 | – | cyclo(YR[Cit]CRG[dP][Dab]RWCYQK[dP]P) (disulfide 4-11; SMILES N=C(N)NCCC[C@@H]1NC(=O)[C@@H]2CSSC[C@H](NC(=O)[C@H](Cc3c[nH]c4ccccc34)NC(=O)[C@H](CCCNC(=N)N)NC(=O)[C@H](CCN)NC(=O)[C@H]3CCCN3C(=O)CNC1=O)C(=O)N[C@@H](Cc1ccc(O)cc1)C(=O)N[C@@H](CCC(N)=O)C(=O)N[C@@H](CCCCN)C(=O)N1CCC[C@@H]1C(=O)N1CCC[C@H]1C(=O)N[C@@H](Cc1ccc(O)cc1)C(=O)N[C@@H](CCCNC(=N)N)C(=O)N[C@@H](CCCNC(N)=O)C(=O)N2) [Example 109] |
| 2.7 | – | cyclo(YR[Cit]CRG[dP]RR[2Nal]CYQK[dP]P) (disulfide 4-11; SMILES N=C(N)NCCC[C@@H]1NC(=O)[C@@H]2CSSC[C@H](NC(=O)[C@H](Cc3ccc4ccccc4c3)NC(=O)[C@H](CCCNC(=N)N)NC(=O)[C@H](CCCNC(=N)N)NC(=O)[C@H]3CCCN3C(=O)CNC1=O)C(=O)N[C@@H](Cc1ccc(O)cc1)C(=O)N[C@@H](CCC(N)=O)C(=O)N[C@@H](CCCCN)C(=O)N1CCC[C@@H]1C(=O)N1CCC[C@H]1C(=O)N[C@@H](Cc1ccc(O)cc1)C(=O)N[C@@H](CCCNC(=N)N)C(=O)N[C@@H](CCCNC(N)=O)C(=O)N2) [Example 115] |
| 7.6 | – | cyclo(YRTCRG[dP][4Pal]RWCYQK[dP]P) (disulfide 4-11; SMILES C[C@@H](O)[C@@H]1NC(=O)[C@H](CCCNC(=N)N)NC(=O)[C@H](Cc2ccc(O)cc2)NC(=O)[C@@H]2CCCN2C(=O)[C@H]2CCCN2C(=O)[C@H](CCCCN)NC(=O)[C@H](CCC(N)=O)NC(=O)[C@H](Cc2ccc(O)cc2)NC(=O)[C@@H]2CSSC[C@H](NC1=O)C(=O)N[C@@H](CCCNC(=N)N)C(=O)NCC(=O)N1CCC[C@@H]1C(=O)N[C@@H](Cc1ccncc1)C(=O)N[C@@H](CCCNC(=N)N)C(=O)N[C@@H](Cc1c[nH]c3ccccc13)C(=O)N2) [Example 118] |
| 1.7 | – | cyclo(YRTCRG[dP][Dab]RWCYQK[dP]P) (disulfide 4-11; SMILES C[C@@H](O)[C@@H]1NC(=O)[C@H](CCCNC(=N)N)NC(=O)[C@H](Cc2ccc(O)cc2)NC(=O)[C@@H]2CCCN2C(=O)[C@H]2CCCN2C(=O)[C@H](CCCCN)NC(=O)[C@H](CCC(N)=O)NC(=O)[C@H](Cc2ccc(O)cc2)NC(=O)[C@@H]2CSSC[C@H](NC1=O)C(=O)N[C@@H](CCCNC(=N)N)C(=O)NCC(=O)N1CCC[C@@H]1C(=O)N[C@@H](CCN)C(=O)N[C@@H](CCCNC(=N)N)C(=O)N[C@@H](Cc1c[nH]c3ccccc13)C(=O)N2) [Example 110] |
| – | 300 | cyclo(YR[Cit]FRVPRR[2Nal]VY[Cit]K[dP]P) (SMILES CC(C)[C@@H]1NC(=O)[C@H](Cc2ccc3ccccc3c2)NC(=O)[C@H](CCCNC(=N)N)NC(=O)[C@H](CCCNC(=N)N)NC(=O)[C@@H]2CCCN2C(=O)[C@H](C(C)C)NC(=O)[C@H](CCCNC(=N)N)NC(=O)[C@H](Cc2ccccc2)NC(=O)[C@H](CCCNC(N)=O)NC(=O)[C@H](CCCNC(=N)N)NC(=O)[C@H](Cc2ccc(O)cc2)NC(=O)[C@@H]2CCCN2C(=O)[C@H]2CCCN2C(=O)[C@H](CCCCN)NC(=O)[C@H](CCCNC(N)=O)NC(=O)[C@H](Cc2ccc(O)cc2)NC1=O) [Example 22] |
| 9.4 | – | cyclo(Y[4Pal]TCRG[dP]RRWCYQK[dP]P) (disulfide 4-11; SMILES C[C@@H](O)[C@@H]1NC(=O)[C@H](Cc2ccncc2)NC(=O)[C@H](Cc2ccc(O)cc2)NC(=O)[C@@H]2CCCN2C(=O)[C@H]2CCCN2C(=O)[C@H](CCCCN)NC(=O)[C@H](CCC(N)=O)NC(=O)[C@H](Cc2ccc(O)cc2)NC(=O)[C@@H]2CSSC[C@H](NC1=O)C(=O)N[C@@H](CCCNC(=N)N)C(=O)NCC(=O)N1CCC[C@@H]1C(=O)N[C@@H](CCCNC(=N)N)C(=O)N[C@@H](CCCNC(=N)N)C(=O)N[C@@H](Cc1c[nH]c3ccccc13)C(=O)N2) [Example 119] |
| 3.4 | – | cyclo(YR[Cit]CRG[dP]R[Orn]WCY[Cit]K[dP]P) (disulfide 4-11; SMILES N=C(N)NCCC[C@@H]1NC(=O)[C@@H]2CSSC[C@H](NC(=O)[C@H](Cc3c[nH]c4ccccc34)NC(=O)[C@H](CCCN)NC(=O)[C@H](CCCNC(=N)N)NC(=O)[C@H]3CCCN3C(=O)CNC1=O)C(=O)N[C@@H](Cc1ccc(O)cc1)C(=O)N[C@@H](CCCNC(N)=O)C(=O)N[C@@H](CCCCN)C(=O)N1CCC[C@@H]1C(=O)N1CCC[C@H]1C(=O)N[C@@H](Cc1ccc(O)cc1)C(=O)N[C@@H](CCCNC(=N)N)C(=O)N[C@@H](CCCNC(N)=O)C(=O)N2) [Example 117] |
| 7.8 | – | cyclo(YR[Cit]CRG[dP]RRYCY[Cit]K[dP]P) (disulfide 4-11; SMILES N=C(N)NCCC[C@@H]1NC(=O)[C@@H]2CSSC[C@H](NC(=O)[C@H](Cc3ccc(O)cc3)NC(=O)[C@H](CCCNC(=N)N)NC(=O)[C@H](CCCNC(=N)N)NC(=O)[C@H]3CCCN3C(=O)CNC1=O)C(=O)N[C@@H](Cc1ccc(O)cc1)C(=O)N[C@@H](CCCNC(N)=O)C(=O)N[C@@H](CCCCN)C(=O)N1CCC[C@@H]1C(=O)N1CCC[C@H]1C(=O)N[C@@H](Cc1ccc(O)cc1)C(=O)N[C@@H](CCCNC(=N)N)C(=O)N[C@@H](CCCNC(N)=O)C(=O)N2) [Example 112] |
| 1.6 | – | cyclo(YR[Cit]C[Dab]G[dP]RRWCYQK[dP]P) (disulfide 4-11; SMILES N=C(N)NCCC[C@@H]1NC(=O)[C@H](CCCNC(=N)N)NC(=O)[C@H]2CCCN2C(=O)CNC(=O)[C@H](CCN)NC(=O)[C@@H]2CSSC[C@H](NC(=O)[C@H](Cc3c[nH]c4ccccc34)NC1=O)C(=O)N[C@@H](Cc1ccc(O)cc1)C(=O)N[C@@H](CCC(N)=O)C(=O)N[C@@H](CCCCN)C(=O)N1CCC[C@@H]1C(=O)N1CCC[C@H]1C(=O)N[C@@H](Cc1ccc(O)cc1)C(=O)N[C@@H](CCCNC(=N)N)C(=O)N[C@@H](CCCNC(N)=O)C(=O)N2) [Example 111] |
